Test results as given in patent publication US20230032087A1 (CULLINAN ONCOLOGY, published 2023).

Target: protein A (UniProt P38507 37-327)
Test: ForteBio Octet HTX (filing: SPR), HCAb on AHC sensors, 1:1 model

B1: CNG-HSA-101 (VHH)
VHH: KVQLVESGGGLVQPGGSLRLSCAASGFTFSSFGMTWVRQAPGKGLEWVSSISGSGSDTLYADSVRGRFTISRDNSKNTLYLQMNSLRAEDTAVYYCTIGGSLSPSSQGTLVTVSS
B1 was tested, and the Kd was at most 1.84 nM and the koff was at most 0.0002 s⁻¹.
